Data reported in patent US20140336126A1.

molecular target: GS-TAP-tagged Optn (human) (UniProt Q96CV9); assay: TAP of GS-tagged Optn from HEK-293 cells, LC-MSMS
Sequence (Q96CV9 whole entry E322K): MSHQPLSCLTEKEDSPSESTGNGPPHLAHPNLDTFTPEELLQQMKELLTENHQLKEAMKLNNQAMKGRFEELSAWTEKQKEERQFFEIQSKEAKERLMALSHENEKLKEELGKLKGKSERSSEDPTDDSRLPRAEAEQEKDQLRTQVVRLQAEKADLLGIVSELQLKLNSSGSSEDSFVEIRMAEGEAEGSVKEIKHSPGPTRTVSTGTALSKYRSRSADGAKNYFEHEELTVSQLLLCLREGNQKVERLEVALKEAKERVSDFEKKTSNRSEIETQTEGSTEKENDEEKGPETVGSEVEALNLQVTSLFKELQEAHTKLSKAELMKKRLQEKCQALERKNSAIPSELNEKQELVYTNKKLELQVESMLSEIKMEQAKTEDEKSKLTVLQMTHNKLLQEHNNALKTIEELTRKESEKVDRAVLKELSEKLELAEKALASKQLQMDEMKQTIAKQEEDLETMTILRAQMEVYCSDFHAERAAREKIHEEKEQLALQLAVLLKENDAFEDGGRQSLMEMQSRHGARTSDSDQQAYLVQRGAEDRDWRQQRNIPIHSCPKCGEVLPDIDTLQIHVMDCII

Chain of MYOSIN, LIGHT CHAIN 6, ALKALI, SMOOTH MUSCLE AND NON-MUSCLE ISOFORM 1. (P60660 2-151): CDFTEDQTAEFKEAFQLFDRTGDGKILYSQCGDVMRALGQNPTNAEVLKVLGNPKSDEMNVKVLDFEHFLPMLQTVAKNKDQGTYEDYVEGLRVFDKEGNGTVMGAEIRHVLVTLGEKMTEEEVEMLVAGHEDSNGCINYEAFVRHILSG
Chain of [..] LIGHT CHAIN 2, [..]. (Q96FJ2 whole entry): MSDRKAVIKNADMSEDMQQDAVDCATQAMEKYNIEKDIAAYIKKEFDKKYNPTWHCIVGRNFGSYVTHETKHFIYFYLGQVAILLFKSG

Substance | sequence coverage | unique peptide counts
285 KDA PROTEIN. (from UniProt Q13813 1-2472) | 0.03 | 7
ALPHA-ACTININ-4. (from UniProt O43707 1-911) | 0.02 | 2
COMPLEMENT COMPONENT 1 Q SUBCOMPONENT-BINDING PROTEIN, MITOCHONDRIAL PRECURSOR. (from UniProt Q07021 74-282) | 0.22 | 5
CORONIN-1C. (from UniProt Q9ULV4 1-474) | 0.25 | 13
DESMOGLEIN 2 PREPROPROTEIN. (from UniProt Q14126 50-1118) | 0.02 | 2
DYNEIN LIGHT CHAIN 1, CYTOPLASMIC. (from UniProt P63167 1-89) | 0.64 | 5
ELONGATION FACTOR 1-ALPHA 2. (from UniProt Q05639 2-463) | 0.06 | 3
FILAMIN 1. (from UniProt P21333 2-2647) | 0.05 | 10
GALPHAI2 PROTEIN. (from UniProt P04899 2-355) | 0.15 | 5
GUANINE NUCLEOTIDE-BINDING PROTEIN G(I)/G(S)/G(T) SUBUNIT BETA 2. (from UniProt P62879 2-340) | 0.06 | 2
GUANINE NUCLEOTIDE-BINDING PROTEIN G. (from UniProt P08754 2-354) | 0.19 | 6
HEAT SHOCK 70 KDA PROTEIN 1. (from UniProt P0DMV9 2-641) | 0.25 | 17
HEAT SHOCK 70 KDA PROTEIN 1L. (from UniProt P34931 1-641) | 0.12 | 7
HEAT SHOCK 70 KDA PROTEIN 6. (from UniProt P17066 1-643) | 0.12 | 8
ISOFORM 1 OF HEAT SHOCK COGNATE 71 KDA PROTEIN. (from UniProt P11142 2-646) | 0.24 | 14
ISOFORM 1 OF MYOSIN IB. (from UniProt O43795 1-1136) | 0.03 | 3

Substance | sequence coverage | unique peptide counts
ISOFORM 1 OF MYOSIN PHOSPHATASE RHO-… PROTEIN. (from UniProt Q6WCQ1 2-1025) | 0.21 | 17
ISOFORM 1 OF MYOSIN-10. (from UniProt P35580 1-1976) | 0.04 | 7
ISOFORM 2 OF ANKYCORBIN. (from UniProt Q9P0K7 1-983) | 0.12 | 11
ISOFORM LONG OF SPECTRIN BETA CHAIN, BRAIN 1. (from UniProt Q01082 2-2364) | 0.01 | 2
ISOFORM SNAP-23A OF SYNAPTOSOMAL-ASSOCIATED PROTEIN 23. (from UniProt O00161 1-211) | 0.11 | 2
MYOSIN REGULATORY LIGHT CHAIN. (from UniProt O14950 2-172) | 0.19 | 3
MYOSIN, LIGHT CHAIN 6, ALKALI, SMOOTH MUSCLE AND NON-MUSCLE ISOFORM 1. | 0.28 | 5
MYOSIN-9. (from UniProt P35579 2-1960) | 0.06 | 10
PEROX1REDOXIN-1. (from UniProt Q06830 2-199) (enzyme) | 0.11 | 2
PRKC APOPTOSIS WT1 REGULATOR PROTEIN. (from UniProt Q96IZ0 1-340) | 0.09 | 2
RAS-RELATED PROTEIN RAB-35. (from UniProt Q15286 1-201) | 0.16 | 3
STRESS-70 PROTEIN, MITOCHONDRIAL PRECURSOR. (from UniProt P38646 47-679) | 0.09 | 5
TROPOMYOSIN 1 ALPHA CHAIN ISOFORM 7. (from UniProt P09493 1-284) | 0.19 | 5
TROPOMYOSIN 4. (from UniProt P67936 2-248) | 0.18 | 6
[..] LIGHT CHAIN 2, [..]. (from UniProt Q96FJ2 1-89) | 0.64 | 5
type 1 protein phosphatase catalytic subunit PP1β (from UniProt P62140 1-327) (enzyme) | 0.2 | 6
